# Data reported in patent US20140039042, “BISPECIFIC APTAMERS MEDIATING TUMOUR CELL LYSIS” (MERCK PATENT GMBH, published 2014).
# B1: bsA12 (ssDNA)
# DNA: CCACTGCGGGGGTCTATACGTGAGGAAGAAGTGGGCAGGTCGATTAGTTTTGGAGTACTCGCTCCGGAGGGAAAAGTTATCAGGCGAGTGCGTAATGGTACGATTTGGGAAGTGGCTTGGGGTGGGATTAGTTTTGGAGTACTC
# B2: bsA3 (ssDNA)
# DNA: CCACTGCGGGGGTCTATACGTGAGGAAGAAGTGGGCAGGTCAAAAAAAAAAAAAAAGAGTGCGTAATGGTACGATTTGGGAAGTGGCTTGGGGTGGG
# B3: CLN0004 (ssDNA)
# DNA: GGAGGGAAAAGTTATCAGGCGAGTGCGTAATGGTACGATTTGGGAAGTGGCTTGGGGTGGGATTAGTTTTGGAGTACTCGCTCC
# B4: bsA9 (ssDNA)
# DNA: GGAGGGAAAAGTTATCAGGCCACTGCGGGGGTCTATACGTGAGGAAGAAGTGGGCAGGTCGATTAGTTTTGGAGTACTCGCTCCGGAGGGAAAAGTTATCAGGCTGGATGGTAGCTCGGTCGGGGTGGGTGGGTTGGCAAGTCTGATTAGTTTTGGAGTACTCGCTCC
# B5: CLN0003 (ssDNA)
# DNA: GGAGGGAAAAGTTATCAGGCTGGATGGTAGCTCGGTCGGGGTGGGTGGGTTGGCAAGTCTGATTAGTTTTGGAGTACTCGCTCC
# B6: bsA17 (ssDNA)
# DNA: CCACTGCGGGGGTCTATACGTGAGGAAGAAGTGGGCAGGTCGGAGGGAAAAGTTATCAGGCTGGATGGTAGCTCGGTCGGGGTGGGTGGGTTGGCAAGTCTGATTAGTTTTGGAGTACTCGCTCC
# B7: bsA21 (ssDNA)
# DNA: CCACTGCGGGGGTCTATACGTGAGGAAGAAGTGGGCAGGTCAAAAAAAAAAAAAAAGGAGGGAAAAGTTATCAGGCTGGATGGTAGCTCGGTCGGGGTGGGTGGGTTGGCAAGTCTGATTAGTTTTGGAGTACTCGCTCC
# B8: bsA15 (ssDNA)
# DNA: GGAGGGAAAAGTTATCAGGCAGAGGGGAGGGTCGGGTATCGGCGTGTTCGGGGGATCTGCGATTAGTTTTGGAGTACTCGCTCCGGAGGGAAAAGTTATCAGGCTGGATGGTAGCTCGGTCGGGGTGGGTGGGTTGGCAAGTCTGATTAGTTTTGGAGTACTCGCTCC
# B9: bsA22 (ssDNA)
# DNA: CCACTGCGGGGGTCTATACGTGAGGAAGAAGTGGAAAAAAAAAAAAAAAGGAGGGAAAAGTTATCAGGCTGGATGGTAGCTCGGTCGGGGTGGGTGGGTTGGCAAGTCTGATTAGTTTTGGAGTACTCGCTCC
# B10: bsA13 (ssDNA)
# DNA: GAGTGCGTAATGGTACGATTTGGGAAGTGGCTTGGGGTGGGATTAGTTTTGGAGTACTCGCTCCGGAGGGAAAAGTTATCAGGCCACTGCGGGGGTCTATACGTGAGGAAGAAGTGG
# B11: bsA20 (ssDNA)
# DNA: CCACTGCGGGGGTCTATACGTGAGGAAGAAGTGGGCAGGTCGGAGGGAAAAGTTATCAGGCTGGATGGTAGCTCGGTCGGGGTGGGTGGGTTGGCAAGTCT
# B12: bsA19 (ssDNA)
# DNA: CCACTGCGGGGGTCTATACGTGAGGAAGAAGTGGGCAGGTCAAAAAAAAAAAAAAAGGAGGGAAAAGTTATCAGGCTGGATGGTAGCTCGGTCGGGGTGGGTGGGTTGGCAAGTCT
# B13: bsA18 (ssDNA)
# DNA: CCACTGCGGGGGTCTATACGTGAGGAAGAAGTGGGCAGGTCATCAGGCGAGTGCGTAATGGTACGATTTGGGAAGTGGCTTGGGGTGGGATTAGTTTTGGAGTACTC
# B14: bsA31 (ssDNA)
# DNA: CCACTGCGGGGGTCTATACGTGAGGAAGAAGTGGGCAGGTCAAAAAAAAAAAAAAAGAGTGCGTAATGGTACGATTTGGGAAGTGGCTTGGGGTGGGATTAGTTTTGGAGTACTCGCTCC
# B15: bsA10 (ssDNA)
# DNA: GGAGGGAAAAGTTATCAGGCTGGATGGTAGCTCGGTCGGGGTGGGTGGGTTGGCAAGTCTGATTAGTTTTGGAGTACTCGCTCCGGAGGGAAAAGTTATCAGGCCACTGCGGGGGTCTATACGTGAGGAAGAAGTGGGCAGGTCGATTAGTTTTGGAGTACTCGCTCC
# B16: CLN0123 (ssDNA)
# DNA: GGAGGGAAAAGTTATCAGGCAGAGGGGAGGGTCGGGTATCGGCGTGTTCGGGGGATCTGCGATTAGTTTTGGAGTACTCGCTCC
# B17: bsA16 (ssDNA)
# DNA: GAGTGCGTAATGGTACGATTTGGGAAGTGGCTTGGGGTGGGATTAGTTTTGGAGTACTCGCTCCGGAGGGAAAAGTTATCAGGCAGAGGGGAGGGTCGGGTATCGGCGTGTTCGGGGGATCTGCGATTAGTTTTGGAGTACTCGCTCC
# B18: CLN0018 (ssDNA)
# DNA: GGAGGGAAAAGTTATCAGGCATCACGTGGTGGGCAAATAACCGGTTGGGGTGGGTCGAGGGATTAGTTTTGGAGTACTCGCTCC
# B19: -20CLN0004-23 (41mer, MS2, with G61) (ssDNA)
# DNA: GAGTGCGTAATGGTACGATTTGGGAAGTGGCTTGGGGTGGG
# B20: -19CLN0020-31 (34mer, MS3) (ssDNA)
# DNA: CCACTGCGGGGGTCTATACGTGAGGAAGAAGTGG
# B21: bsA11 (ssDNA)
# DNA: CCACTGCGGGGGTCTATACGTGAGGAAGAAGTGGGCAGGTCGATTAGTTTTGGAGTACTCGCTCCGGAGGGAAAAGTTATCAGGCTGGATGGTAGCTCGGTCGGGGTGGGTGGGTTGGCAAGTCTGATTAGTTTTGGAGTACTCGCTCC
# B22: CLN0004 without flanking sequences (ssDNA)
# DNA: GAGTGCGTAATGGTACGATTTGGGAAGTGGCTTGGGGTGG
# B23: CLN0020 (ssDNA)
# DNA: GGAGGGAAAAGTTATCAGGCCACTGCGGGGGTCTATACGTGAGGAAGAAGTGGGCAGGTCGATTAGTTTTGGAGTACTCGCTCC
# Legend:
# c-Met Fc fusion [1] = target: T1, c-Met Fc fusion (UniProt P08581 P08581:25-932); test: filter; dot blot; details: tags: Fc-His fusion; chain copies: 2
# c-Met Fc fusion [2] = target: T1, c-Met Fc fusion; test: filter; c-Met aptamer at 3' end performed best; dot blot; details: tags: Fc-His fusion; chain copies: 2
# c-Met Fc fusion [3] = target: T1, c-Met Fc fusion; test: filter; 11±6 nM, n=6, dot blot; FIG. 2 legend gives 57 nM; heading cites SEQ ID NO 54 but CLN0004 is SEQ 53; details: tags: Fc-His fusion; chain copies: 2
# c-Met Fc fusion [4] = target: T1, c-Met Fc fusion; test: filter; picomolar Kd, number only in figure; details: tags: Fc-His fusion; chain copies: 2
# c-Met Fc fusion [5] = target: T1, c-Met Fc fusion; test: filter; 91±40 pM, n=3, dot blot; heading cites SEQ ID NO 53 but CLN0003 is SEQ 52; details: tags: Fc-His fusion; chain copies: 2
# [6] = target: T2, CD16α (FcγRIIIa) V158 allotype, CD16α-6His (UniProt P08637 P08637:17-208); test: filter; dot blot; allotype not specified for this assay; details: tags: 6His
# c-Met Fc fusion [7] = target: T1, c-Met Fc fusion; test: filter; dot blot; picomolar; details: tags: Fc-His fusion; chain copies: 2
# c-Met Fc fusion [8] = target: T1, c-Met Fc fusion; test: filter; picomolar Kd, number only in figure; EMSA also shows binding; details: tags: Fc-His fusion; chain copies: 2
# [9] = target: T2, CD16α (FcγRIIIa) V158 allotype, …; test: filter; dot blot; details: tags: 6His
# CD16β (FcγRIIIb) = CD16β (FcγRIIIb) (UniProt O75015 O75015:17-200); test: filter; dot blot; details: tags: 10His
# [10] = target: T2, CD16α (FcγRIIIa) V158 allotype, …; test: filter; 38±26 nM, n=4, dot blot; broad unspecific cell binding in FACS; details: tags: 6His
# c-Met Fc fusion [11] = target: T1, c-Met Fc fusion; test: filter; nearly similar affinity as full length; details: tags: Fc-His fusion; chain copies: 2
# c-Met Fc fusion [12] = target: T1, c-Met Fc fusion; test: filter; complete loss of binding, dot blot; details: tags: Fc-His fusion; chain copies: 2
# [13] = target: T2, CD16α (FcγRIIIa) V158 allotype, …; test: filter; 45±28 nM, n=10, dot blot; details: tags: 6His
# Sequence of CD16β (FcγRIIIb) (O75015 17-200, one chain of several): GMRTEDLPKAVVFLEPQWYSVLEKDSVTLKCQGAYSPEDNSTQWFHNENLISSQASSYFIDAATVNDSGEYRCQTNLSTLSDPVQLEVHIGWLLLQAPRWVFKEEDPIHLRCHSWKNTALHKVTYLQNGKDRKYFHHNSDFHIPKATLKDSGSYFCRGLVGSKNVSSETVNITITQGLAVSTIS
# T2 sequence (P08637 17-208, one chain of several): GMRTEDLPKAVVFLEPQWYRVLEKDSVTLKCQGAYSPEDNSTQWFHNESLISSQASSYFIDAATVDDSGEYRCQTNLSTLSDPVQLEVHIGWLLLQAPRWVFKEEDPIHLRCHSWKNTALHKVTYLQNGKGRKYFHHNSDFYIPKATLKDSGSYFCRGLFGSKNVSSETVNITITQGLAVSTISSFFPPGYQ
# T1 sequence (P08581 25-932, one chain of several): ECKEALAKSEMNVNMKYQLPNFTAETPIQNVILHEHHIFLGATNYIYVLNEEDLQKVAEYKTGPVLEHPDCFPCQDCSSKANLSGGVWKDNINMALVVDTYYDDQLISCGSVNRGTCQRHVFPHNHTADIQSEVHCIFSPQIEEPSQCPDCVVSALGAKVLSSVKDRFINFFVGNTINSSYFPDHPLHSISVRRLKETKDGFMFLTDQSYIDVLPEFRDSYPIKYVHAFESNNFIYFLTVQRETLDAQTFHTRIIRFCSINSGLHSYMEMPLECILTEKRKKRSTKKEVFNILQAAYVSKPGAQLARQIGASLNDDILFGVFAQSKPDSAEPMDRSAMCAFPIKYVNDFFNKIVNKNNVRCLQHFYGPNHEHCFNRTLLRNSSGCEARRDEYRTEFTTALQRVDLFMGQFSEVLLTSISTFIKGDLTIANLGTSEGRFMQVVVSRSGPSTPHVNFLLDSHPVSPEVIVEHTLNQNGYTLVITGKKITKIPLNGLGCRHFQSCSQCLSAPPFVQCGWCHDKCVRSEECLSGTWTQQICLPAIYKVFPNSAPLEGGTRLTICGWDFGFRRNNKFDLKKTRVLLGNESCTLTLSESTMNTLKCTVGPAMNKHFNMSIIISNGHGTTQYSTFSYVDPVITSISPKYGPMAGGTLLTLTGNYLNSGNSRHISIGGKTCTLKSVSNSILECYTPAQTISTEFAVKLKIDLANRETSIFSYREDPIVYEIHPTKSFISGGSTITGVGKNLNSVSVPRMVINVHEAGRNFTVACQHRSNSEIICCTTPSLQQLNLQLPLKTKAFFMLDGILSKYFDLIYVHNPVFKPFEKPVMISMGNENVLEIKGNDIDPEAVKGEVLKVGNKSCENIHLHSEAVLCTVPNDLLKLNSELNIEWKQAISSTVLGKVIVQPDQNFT
binder,measurement,setting,value
B1,Kd,c-Met Fc fusion [1],18 nM
B2,binding result,c-Met Fc fusion [2],binds
B3,Kd,c-Met Fc fusion [3],11 nM
B4,binding result,c-Met Fc fusion [4],binds
B5,Kd,c-Met Fc fusion [5],0.091 nM
B6,Kd,[6],19 nM
same,Kd,c-Met Fc fusion [7],0.352 nM
B7,binding result,c-Met Fc fusion [4],binds
B8,Kd,[6],174 nM
B9,binding result,c-Met Fc fusion [8],binds
B10,Kd,c-Met Fc fusion [1],18 nM
B11,Kd,c-Met Fc fusion [1],5 nM
B12,binding result,c-Met Fc fusion [2],binds
B13,binding result,c-Met Fc fusion [2],binds
B14,Kd,[6],24 nM
same,Kd,c-Met Fc fusion [1],92 nM
B15,binding result,c-Met Fc fusion [4],binds
B16,Kd,[9],231 nM
same,binding result,CD16β (FcγRIIIb),no binding
B17,Kd,[6],178 nM
B18,Kd,[10],38 nM
same,binding result,CD16β (FcγRIIIb),no binding
B19,binding result,c-Met Fc fusion [11],binds
B20,Kd,[6],47 nM
B21,binding result,c-Met Fc fusion [8],binds
B22,binding result,c-Met Fc fusion [12],no binding
B23,Kd,[13],45 nM
same,binding result,CD16β (FcγRIIIb),no binding
